The record followed here is article PMC2650391 (2009).

For this assay, the target named is Histone H3K4me3 peptide (Homo sapiens, UniProt P68431).

B1: ING4 PHD (protein)
chain: PNEPTYCLCHQVSYGEMIGCDNPDCSIEWFHFACVGLTTKPRGKWFCPRCSQERKK
By Kd is commonly meant the constant that tells how readily two partners part at equilibrium. Low values mean tighter binding, high ones weaker binding. B1 had a Kd of 7.9 µM.
